In patent EP4137518A1 (Inhibrx, Inc., dated 2023):

Legend:
[1] = molecular target: T1, human CD47, cell surface (Raji, CCRF-CEM, Daudi cells) (human, UniProt Q08722 19-323); assay: flow cytometry on Raji cells; apparent KD from non-linear fit of median fluorescence intensities
T1 construct: Endogenous CD47 on human cell lines; also called cell surface CD47; endogenous (cell surface) form of CD47

[2] = molecular target: T1, human CD47, cell surface (Raji, …); assay: summary of the binding and blocking assays

B1: B6H12 (antibody, V domains shown)
VH: EVQLVESGGDLVKPGGSLKLSCAASGFTFSGYGMSWVRQTPDKRLEWVATITSGGTYTYYPDSVKGRFTISRDNAKNTLYLQIDSLKSEDTAIYFCARSLAGNAMDYWGQGTSVTVSS
VL: DIVMTQSPATLSVTPGDRVSLSCRASQTISDYLHWYQQKSHESPRLLIKFASQSISGIPSRFSGSGSGSDFTLSINSVEPEDVGVYYCQNGHGFPRTFGGGTKLEIK
Kd [1]: 3.79 nM

B2: 9E4 antibody (murine) (antibody, mouse IgG1, V domains shown)
VH: EVQLRQSGPELVKPGASVKISCKASGYSFTDYYMYWVKQSRVRSLAWIGRINPYTGATGYDQNFKDKASLIVDKSSSTAYMELRSLTSEDSAVYYCARGRNRYDGWFAYWGQGTLVTV
VL: EIQMTQTTSSLSASLGDRVTISCRASQDISNYLNWYQQKPDGTVKLLIYYTSRLHSGVPSRFSGSGSGTDYSLTISNLDQEDIATYFCQQGNALPPTFGGGTNLEIK
binding result [2]: binds
